Test results taken from PMC4423706, “Mechanism of Thiosulfate Oxidation in the SoxA Family of Cysteine-ligated Cytochromes” (The Journal of Biological Chemistry, 2015).

What follows are molecules tested against T1, TsdA (thiosulfate dehydrogenase) (Allochromatium vinosum, UniProt D3RVD4) (assay: ESI-MS of intact protein). Conditions: covalent; S-thiosulfonation of Cys123, +112 Da; pH 4.25 and pH 8.0; no electron donor.
T1 construct: native signal peptide (removed on export), C-terminal strep(II) tag kept; E. coli Lemo56(DE3) with pEC86; two c-type hemes; 28,228 Da by ESI-MS; 234 residues modeled
T1 sequence (D3RVD4 28-270): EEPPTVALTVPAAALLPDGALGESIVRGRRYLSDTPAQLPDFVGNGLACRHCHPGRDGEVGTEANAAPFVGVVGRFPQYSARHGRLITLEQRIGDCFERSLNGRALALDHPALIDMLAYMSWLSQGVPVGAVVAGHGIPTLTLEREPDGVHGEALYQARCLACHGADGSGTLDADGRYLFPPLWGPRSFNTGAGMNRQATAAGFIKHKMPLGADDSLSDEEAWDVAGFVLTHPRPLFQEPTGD
Type: biochemical

Molecule	ESI-MS of intact protein
O=S(=O)(O)SSS(=O)(=O)O [tetrathionate]	Tetrathionate treatment under both conditions gave the 112-Da increase in mass

The molecules below were run on O=S(O)(O)=S (assay: purified protein). Conditions: 1 mM potassium ferricyanide as electron acceptor, 100 mM ammonium acetate pH 4.25, 24 °C.
Type: biochemical, Allochromatium vinosum

Molecule	Km [mM]	kcat [s⁻¹]
TsdA (thiosulfate dehydrogenase) (Allochromatium vinosum DSM 180) (protein, native signal peptide (removed on export), C-terminal strep(II) tag kept; E. coli Lemo56(DE3) with pEC86; two c-type hemes; 28,228 Da by ESI-MS; 234 residues modeled) EEPPTVALTVPAAALLPDGALGESIVRGRRYLSDTPAQLPDFVGNGLACRHCHPGRDGEVGTEANAAPFVGVVGRFPQYSARHGRLITLEQRIGDCFERSLNGRALALDHPALIDMLAYMSWLSQGVPVGAVVAGHGIPTLTLEREPDGVHGEALYQARCLACHGADGSGTLDADGRYLFPPLWGPRSFNTGAGMNRQATAAGFIKHKMPLGADDSLSDEEAWDVAGFVLTHPRPLFQEPTGD	2.2 ± 0.3	4280 ± 150
TsdA (thiosulfate dehydrogenase) (Allochromatium vinosum DSM 180; R109A) (protein, native signal peptide (removed on export), C-terminal strep(II) tag kept; E. coli Lemo56(DE3) with pEC86; two c-type hemes; 28,228 Da by ESI-MS; 234 residues modeled) EEPPTVALTVPAAALLPDGALGESIVRGRRYLSDTPAQLPDFVGNGLACRHCHPGRDGEVGTEANAAPFVGVVGRFPQYSAAHGRLITLEQRIGDCFERSLNGRALALDHPALIDMLAYMSWLSQGVPVGAVVAGHGIPTLTLEREPDGVHGEALYQARCLACHGADGSGTLDADGRYLFPPLWGPRSFNTGAGMNRQATAAGFIKHKMPLGADDSLSDEEAWDVAGFVLTHPRPLFQEPTGD	5.8 ± 0.8	3210 ± 310
TsdA (thiosulfate dehydrogenase) (Allochromatium vinosum DSM 180; R224A) (protein, native signal peptide (removed on export), C-terminal strep(II) tag kept; E. coli Lemo56(DE3) with pEC86; two c-type hemes; 28,228 Da by ESI-MS; 234 residues modeled) EEPPTVALTVPAAALLPDGALGESIVRGRRYLSDTPAQLPDFVGNGLACRHCHPGRDGEVGTEANAAPFVGVVGRFPQYSARHGRLITLEQRIGDCFERSLNGRALALDHPALIDMLAYMSWLSQGVPVGAVVAGHGIPTLTLEREPDGVHGEALYQARCLACHGADGSGTLDADGRYLFPPLWGPRSFNTGAGMNAQATAAGFIKHKMPLGADDSLSDEEAWDVAGFVLTHPRPLFQEPTGD	2.5 ± 0.8	3670 ± 460
TsdA (thiosulfate dehydrogenase) (Allochromatium vinosum DSM 180; S127A) (protein, native signal peptide (removed on export), C-terminal strep(II) tag kept; E. coli Lemo56(DE3) with pEC86; two c-type hemes; 28,228 Da by ESI-MS; 234 residues modeled) EEPPTVALTVPAAALLPDGALGESIVRGRRYLSDTPAQLPDFVGNGLACRHCHPGRDGEVGTEANAAPFVGVVGRFPQYSARHGRLITLEQRIGDCFERALNGRALALDHPALIDMLAYMSWLSQGVPVGAVVAGHGIPTLTLEREPDGVHGEALYQARCLACHGADGSGTLDADGRYLFPPLWGPRSFNTGAGMNRQATAAGFIKHKMPLGADDSLSDEEAWDVAGFVLTHPRPLFQEPTGD	10.7 ± 6.2	3060 ± 920
TsdA (thiosulfate dehydrogenase) (Allochromatium vinosum DSM 180; R119A) (protein, native signal peptide (removed on export), C-terminal strep(II) tag kept; E. coli Lemo56(DE3) with pEC86; two c-type hemes; 28,228 Da by ESI-MS; 234 residues modeled) EEPPTVALTVPAAALLPDGALGESIVRGRRYLSDTPAQLPDFVGNGLACRHCHPGRDGEVGTEANAAPFVGVVGRFPQYSARHGRLITLEQAIGDCFERSLNGRALALDHPALIDMLAYMSWLSQGVPVGAVVAGHGIPTLTLEREPDGVHGEALYQARCLACHGADGSGTLDADGRYLFPPLWGPRSFNTGAGMNRQATAAGFIKHKMPLGADDSLSDEEAWDVAGFVLTHPRPLFQEPTGD	47 ± 7	640 ± 40
